First the molecules themselves.
B1: M7 (antibody, human IgG1, kappa, V domains shown)
VH: EVQLVESGGGLVQPGGSLRLSCAASGFTVSSNYMSWVRQAPGKGLEWVSVIYSGGSTYYADSVKGRFTISRDNSKNTLYLQMNSLRAEDTAVYYCARGSTNTYYYDSSGHPWGQGTMVTVSS
VL: DIVMTQSPLSLPATPGEPASISCRSSQSLLHSNGYTYLDWYLQKPGQSPQVLIYLASNRASGVPDRFSGSGSGTNFTLKISRVEAEDVGLFYCMQALQTPQTFGQGTKLEIKR
notes: Human IgG
B2: M3 (antibody, human IgG1, lambda, V domains shown)
VH: QLQLQESGPGLVKPSETLSLTCTVSGGSISSSSYYWGWIRQPPGKGLEWIGSIYYSGSTHYNPSLKSRVTISVDTSKNQFSLKLRSVTAADTAVYYCARGVVEVRGNHYYYYYMDVWGKGTTVTVSS
VL: QSVLTQPPSVSGAPGQRVTISCTGSSSNIGAGYDVHWYQQLPGTAPKLLIYGNSYRPSGVPDRFSGSKSGTSASLAITGLQAEDEADYYCQSYDSSLSGSGVFGGGTKLTVLG
notes: Human IgG
B3: M1 (antibody, human IgG1, kappa, V domains shown)
VH: QLQLQESGPGLVKPSETLSLTCTVSGGSISSSRYYWGWIRQPPGKGLEWIGSIYYSGSTYYNPSLKSRVTISVDTSNNQFSLKLTSVTAADTAVYYCARLPESGGYSGWFDPWGQGTLVTVSS
VL: not shown
notes: Human IgG
B4: M2 (antibody, human IgG1, kappa, V domains shown)
VH: B3 VH
VL: not shown
notes: Human IgG

Where no end group is shown, it is not given here. The star is where a group is joined. αGalNAc = CC(=O)N[C@@H]1[C@@H](O)[C@@H](O)[C@@H](CO)O[C@@H]1*; Galβ1‑3GalNAc = TF-antigen

For the first assay, the target named is T1, Synthetic peptide HGVTSAPDTRPAPGSTAPP
T1 construct: Unglycosylated; also called 346; MUC1 repeat
T1 peptide: HGVTSAPDTRPAPGSTAPP
Briefly: ELISA on coated peptide, antibody 0.01 mg/ml, mean of 3. An excerpt:
(§1) Selected antibodies from Table 1 were further characterized for binding to synthetic MUC1 glycopeptides that were synthesized with the GalNac or GaNac-Gal carbohydrates on various serines and threonines along the MUC1 tandem repeat. If placed within the specific epitope recognized by an antibody, the antibody would not bind that particular glycopeptide.
In general terms: In an ELISA, binding on a coated surface is turned into a signal by an enzyme label.
For the molecule B1, the “ELISA absorbance at 450 nm” value is 0.1 absorbance.

As for B2, the “ELISA absorbance at 450 nm” value was found to be 0.1 absorbance.

Regarding B3, the “ELISA absorbance at 450 nm” value came to 0.1 absorbance.

B4: the “ELISA absorbance at 450 nm” value worked out at 0.1 absorbance.

A further assay deals with T2, Synthetic peptide (GVTSAPDTRPAPGSTAPPAH)2.
T2 peptide: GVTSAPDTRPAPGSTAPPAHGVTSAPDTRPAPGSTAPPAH
The description is as above.
From the text: as §1
Turning to B1, the “ELISA absorbance at 450 nm” value came out at 3.5 absorbance.

Take B2: the “ELISA absorbance at 450 nm” value stood at 3.1 absorbance.

With B3, the “ELISA absorbance at 450 nm” value stood at 3.2 absorbance.

Take B4: the “ELISA absorbance at 450 nm” value worked out at 3.4 absorbance.

A further assay deals with T3, SEQ ID NO: 346 glycopeptide with TF-antigen at Thr4.
T3 construct: also called T4^TF
T3 peptide: HGVT(Galβ1‑3GalNAc)SAPDTRPAPGSTAPP
Description: ELISA on coated glycopeptide, antibody 0.01 mg/ml, mean of 3.
From the text: as §1
With B1, the “ELISA absorbance at 450 nm” value turned out to be 0.1 absorbance.

Consider B2, for which the “ELISA absorbance at 450 nm” value was determined as 0.1 absorbance.

Turning to B3, the “ELISA absorbance at 450 nm” value was determined as 0.1 absorbance.

For B4, the “ELISA absorbance at 450 nm” value worked out at 0.1 absorbance.

The next assay has as its target T4, SEQ ID NO: 346 glycopeptide with TF-antigen at Ser5 (not fully specified (residue 5)).
T4 construct: also called S5^TF
T4 peptide: HGVTSAPDTRPAPGSTAPP
The description is as above.
From the text: as §1
With B1, the “ELISA absorbance at 450 nm” value turned out to be 0.1 absorbance.

Turning to B2, the “ELISA absorbance at 450 nm” value came to 0.1 absorbance.

On to B3, for which the “ELISA absorbance at 450 nm” value is 0.1 absorbance.

As to B4, the “ELISA absorbance at 450 nm” value came out at 0.1 absorbance.

The target of another assay is T5, SEQ ID NO: 346 glycopeptide with TF-antigen at Thr4 and Thr9.
T5 construct: also called T4^TF/T9^TF
T5 peptide: HGVT(Galβ1‑3GalNAc)SAPDT(Galβ1‑3GalNAc)RPAPGSTAPP
The assay is described as above.
From the text: as §1
As to B1, the “ELISA absorbance at 450 nm” value turned out to be 0.1 absorbance.

Turning to B2, the “ELISA absorbance at 450 nm” value amounted to 0.1 absorbance.

B3: the “ELISA absorbance at 450 nm” value amounted to 0.1 absorbance.

In the case of B4, the “ELISA absorbance at 450 nm” value came to 0.1 absorbance.

For a further assay, the target named is T6, SEQ ID NO: 346 glycopeptide with Tn-antigen at Thr4, Thr9 and Thr16.
T6 construct: also called T4^Tn/T9^Tn/T16^Tn
T6 peptide: HGVT(αGalNAc)SAPDT(αGalNAc)RPAPGST(αGalNAc)APP
Described as above.
From the text: as §1
On to B1, for which the “ELISA absorbance at 450 nm” value turned out to be 0.1 absorbance.

For the molecule B2, the “ELISA absorbance at 450 nm” value was determined as 0.1 absorbance.

As to B3, the “ELISA absorbance at 450 nm” value came to 0.1 absorbance.

For the molecule B4, the “ELISA absorbance at 450 nm” value was found to be 0.1 absorbance.

In the next assay the target is T7, SEQ ID NO: 346 glycopeptide with TF-antigen at Thr16.
T7 construct: also called T16^TF
T7 peptide: HGVTSAPDTRPAPGST(Galβ1‑3GalNAc)APP
The assay is described as above.
From the text: as §1
On to B1, for which the “ELISA absorbance at 450 nm” value stood at 0.1 absorbance.

Take B2: the “ELISA absorbance at 450 nm” value turned out to be 0.1 absorbance.

For the molecule B3, the “ELISA absorbance at 450 nm” value is 0.1 absorbance.

For B4, the “ELISA absorbance at 450 nm” value was 0.1 absorbance.

A further assay deals with T8, SEQ ID NO: 346 glycopeptide with TF-antigen at Thr9.
T8 construct: also called T9^TF
T8 peptide: HGVTSAPDT(Galβ1‑3GalNAc)RPAPGSTAPP
Described as above.
From the text: as §1
Turning to B1, the “ELISA absorbance at 450 nm” value turned out to be 0.1 absorbance.

For B2, the “ELISA absorbance at 450 nm” value came out at 0.1 absorbance.

On to B3, for which the “ELISA absorbance at 450 nm” value turned out to be 0.1 absorbance.

Turning to B4, the “ELISA absorbance at 450 nm” value was determined as 0.1 absorbance.

The next assay addresses T9, 100 aa-long synthetic MUC1 peptide (…)5.
T9 construct: also called 100-mer; vaccine 100-mer peptide
Briefly: ELISA titration on coated 100-mer peptide, EC50 approximated. An excerpt: Heavy and light chains of antibodies reactive against MUC1 were generated from plasma of individuals vaccinated with a 100 aa-long synthetic MUC1 peptide (100-mer) representing the unglycosylated tumor associated MUC1 antigen (Kimura et al., 2013, Cancer Prev. Res. (Phila.), 6:18-26). Binding of monoclonal antibodies produced by combinatorial pairing of chains was characterized by ELISA using the vaccine 100-mer peptide consisting of the following sequence ([…])₅ (SEQ ID NO: 2). Briefly, 96-well high-binding ELISA plates were coated with 50 μl of the peptide diluted in carbonate buffer at 2 μg/ml. The wells were washed then blocked with 5% fat-free milk in phosphate-buffered saline (PBS). Antibodies were diluted in 5% milk in PBS with 0.1% TWEEN 20 (PBS-T) and then added to the peptide-coated, blocked wells and incubated at 37° C. for 2 hours, after which the wells were washed. Binding of antibody was probed with an anti-human IgG goat antibody conjugated to horseradish peroxidase (HRP), and signal was detected with 3,3′,5,5′-tetramethylbenzidine (TMB) substrate, which was neutralized with an acid, then the 450 nm absorbance was read. […] Additionally, the EC₅₀ of each antibody was approximated by ELISA titration (Table 1).
The term EC50 denotes the concentration giving half of the maximal effect. In the case of B1, a half-maximal response (EC50) required 0.011 µg/mL.

For B2, the EC50 was determined as 0.011 µg/mL.

For B3, the EC50 was 0.011 µg/mL.

Regarding B4, the midpoint of the response, the EC50, lay at 0.007 µg/mL.

Source of the values: patent US20160145343A1 (UNIVERSITY OF PITTSBURGH OF THE COMMONWEALTH SYSTEM OF …, published 2016).
